# B1: Glycogen accumulation regulator GarA (Mycobacterium tuberculosis (strain ATCC 25618 / P9WJA9 (parent)
# chain: MTDMNPDIEKDQTSDEVTVETTSVFRADFLSELDAPAQAGTESAVSGVEGLPPGSALLVVKRGPNAGSRFLLDQAITSAGRHPDSDIFLDDVTVSRRHAEFRLENNEFNVVDVGSLNGTYVNREPVDSAVLANGDEVQIGKFRLVFLTGPKQGEDDGSTGGP
# B2: Glycogen accumulation regulator GarA (Mycobacterium tuberculosis (strain ATCC 25618 / P9WJA9 (parent)
# chain: B1 chain
# partner: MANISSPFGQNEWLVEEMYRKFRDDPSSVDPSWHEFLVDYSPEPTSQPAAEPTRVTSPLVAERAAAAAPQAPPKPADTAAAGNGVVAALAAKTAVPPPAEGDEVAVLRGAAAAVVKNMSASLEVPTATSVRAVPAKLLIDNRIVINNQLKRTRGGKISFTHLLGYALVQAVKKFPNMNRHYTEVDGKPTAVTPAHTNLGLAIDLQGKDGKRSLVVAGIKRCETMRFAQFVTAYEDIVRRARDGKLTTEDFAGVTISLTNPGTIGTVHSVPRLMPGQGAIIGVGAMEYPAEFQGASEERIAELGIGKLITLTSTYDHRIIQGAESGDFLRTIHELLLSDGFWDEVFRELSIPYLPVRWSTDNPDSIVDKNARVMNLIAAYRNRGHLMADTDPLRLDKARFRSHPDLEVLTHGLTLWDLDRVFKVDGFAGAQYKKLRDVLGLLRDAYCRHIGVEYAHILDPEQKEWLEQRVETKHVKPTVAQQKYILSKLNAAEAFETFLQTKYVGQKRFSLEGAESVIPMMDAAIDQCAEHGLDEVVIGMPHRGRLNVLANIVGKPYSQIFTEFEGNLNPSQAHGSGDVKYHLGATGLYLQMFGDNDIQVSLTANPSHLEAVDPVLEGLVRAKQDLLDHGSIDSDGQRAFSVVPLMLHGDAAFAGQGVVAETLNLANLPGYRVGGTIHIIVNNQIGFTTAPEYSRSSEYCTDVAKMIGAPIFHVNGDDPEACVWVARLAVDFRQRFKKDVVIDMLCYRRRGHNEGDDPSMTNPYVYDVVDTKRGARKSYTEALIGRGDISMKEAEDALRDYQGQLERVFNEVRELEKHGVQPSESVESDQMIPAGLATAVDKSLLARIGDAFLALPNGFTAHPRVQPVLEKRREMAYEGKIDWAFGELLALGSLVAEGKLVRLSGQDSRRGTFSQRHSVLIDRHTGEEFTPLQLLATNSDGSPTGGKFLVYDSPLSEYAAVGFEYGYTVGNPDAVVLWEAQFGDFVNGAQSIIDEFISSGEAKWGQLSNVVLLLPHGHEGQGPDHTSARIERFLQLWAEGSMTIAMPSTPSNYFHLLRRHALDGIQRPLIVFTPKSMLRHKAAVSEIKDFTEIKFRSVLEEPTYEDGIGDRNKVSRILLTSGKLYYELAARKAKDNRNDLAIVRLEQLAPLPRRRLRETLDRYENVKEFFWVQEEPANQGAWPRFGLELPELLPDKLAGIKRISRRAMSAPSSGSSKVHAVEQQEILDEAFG
# Variants of: B1
# Settings: with gltb_myctu gltB
row,Variant,effect of a mutation on the interaction
1,K141E,disrupting interaction
2,S95A,disrupting interaction
3,N117A,disrupting interaction

# Variants of: B1
# Settings: with dhe2_myctu gdh
row,Variant,effect of a mutation on the interaction
1,K141E,disrupting interaction
2,S95A,decreasing interaction
3,R143E,disrupting interaction

# Variants of: B1
# Settings: with dhe2_myctu gdh
# Remark: another data set of the same source
row,Variant,effect of a mutation on the interaction
1,N117A,decreasing interaction

# Variants of: B2
# Settings: with kgd_myctu kgd
row,Variant,effect of a mutation on the interaction
1,N117A,disrupting interaction
2,K141E,disrupting interaction
3,R143E,disrupting interaction

# — IntAct's records for PubMed 19318624
